Laboratory results as given in US20260167710A1.

Experiments:
[1] = target: human recombinant neonatal receptor (FcRn) (human) (UniProt P55899); experiment: SPR (ProteOn XPR36), antibody captured by protein L, FcRn as analyte, equilibrium fit, pH 6.0, 25 C
[2] = target: cynomolgus recombinant neonatal receptor (FcRn) (cynomolgus monkey) (UniProt Q8SPV9); experiment: as above
[3] = target: cFcgRIIIa (cynomolgus monkey); experiment: SPR (ProteOn XPR36), anti-poly-histidine IgG surface, antibody as analyte, equilibrium fit, 25 C
Sequence of cFcgRIIIa (cynomolgus monkey) (Q8SPW2 17-208): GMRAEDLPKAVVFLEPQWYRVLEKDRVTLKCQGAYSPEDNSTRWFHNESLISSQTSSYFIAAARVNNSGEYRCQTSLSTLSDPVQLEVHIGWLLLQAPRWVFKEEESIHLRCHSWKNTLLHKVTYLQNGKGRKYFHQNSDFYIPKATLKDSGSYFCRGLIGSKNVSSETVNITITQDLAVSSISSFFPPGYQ

[4] = target: cFcgRIIb (cynomolgus monkey); experiment: as above
hFcgRIIa (R131) (human) = hFcgRIIa (R131) (human) (UniProt P12318); experiment: as above
Sequence of hFcgRIIa (R131) (human) (P12318 34-217 H167R): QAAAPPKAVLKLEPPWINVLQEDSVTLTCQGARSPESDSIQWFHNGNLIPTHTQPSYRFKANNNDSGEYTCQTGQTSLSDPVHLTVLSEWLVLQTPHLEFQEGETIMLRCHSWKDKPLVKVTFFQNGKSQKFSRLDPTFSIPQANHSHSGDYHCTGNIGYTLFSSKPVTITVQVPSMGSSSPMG

hFcgRIIIa (F158) (human) = hFcgRIIIa (F158) (human) (UniProt P08637); experiment: as above
Sequence of hFcgRIIIa (F158) (human) (P08637 17-208): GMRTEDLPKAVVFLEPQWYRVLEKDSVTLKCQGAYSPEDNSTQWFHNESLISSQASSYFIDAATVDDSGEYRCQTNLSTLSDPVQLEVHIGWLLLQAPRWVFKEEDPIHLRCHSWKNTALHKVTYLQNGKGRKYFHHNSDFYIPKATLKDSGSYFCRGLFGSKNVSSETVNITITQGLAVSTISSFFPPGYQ

hFcgRIIIa (V158) (human) = hFcgRIIIa (V158) (human) (UniProt P08637); experiment: as above
Sequence of hFcgRIIIa (V158) (human) (P08637 17-208 F176V): as the sequence (P08637 17-208) above, with F160V counted along it

hFcgRIIa (H131) (human) = hFcgRIIa (H131) (human) (UniProt P12318); experiment: as above
Sequence of hFcgRIIa (H131) (human) (P12318 34-217): as the sequence (P12318 34-217 H167R) above, with R134H counted along it

hFcgRI (human) = hFcgRI (human) (UniProt P12314); experiment: as above
Sequence of hFcgRI (human) (P12314 16-292): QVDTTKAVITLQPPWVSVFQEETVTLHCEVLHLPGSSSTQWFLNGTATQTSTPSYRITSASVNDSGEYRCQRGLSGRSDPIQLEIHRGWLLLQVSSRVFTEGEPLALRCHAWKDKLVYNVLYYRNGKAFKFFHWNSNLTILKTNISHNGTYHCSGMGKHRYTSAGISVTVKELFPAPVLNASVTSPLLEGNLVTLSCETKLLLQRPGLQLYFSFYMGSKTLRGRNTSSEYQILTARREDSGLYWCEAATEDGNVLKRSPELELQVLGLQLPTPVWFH

[5] = target: cFcgRIIa (cynomolgus monkey); experiment: as above
[6] = target: human complement component C1q (human) (UniProt P02745); experiment: SPR (ProteOn XPR36), antibody immobilised by amine coupling, C1q as analyte, equilibrium fit, 25 C
Sequence of human complement component C1q (human) (P02745 23-245 limits assumed, chain 1 of 3): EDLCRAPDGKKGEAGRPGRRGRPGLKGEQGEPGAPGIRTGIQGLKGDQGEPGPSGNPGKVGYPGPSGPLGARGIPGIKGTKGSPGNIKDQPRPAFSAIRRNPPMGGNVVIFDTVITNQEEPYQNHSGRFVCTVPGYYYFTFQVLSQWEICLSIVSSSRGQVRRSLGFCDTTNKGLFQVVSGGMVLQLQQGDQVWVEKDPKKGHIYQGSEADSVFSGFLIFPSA
Sequence of human complement component C1q (human) (P02746 28-253 limits assumed, chain 2 of 3, further chain): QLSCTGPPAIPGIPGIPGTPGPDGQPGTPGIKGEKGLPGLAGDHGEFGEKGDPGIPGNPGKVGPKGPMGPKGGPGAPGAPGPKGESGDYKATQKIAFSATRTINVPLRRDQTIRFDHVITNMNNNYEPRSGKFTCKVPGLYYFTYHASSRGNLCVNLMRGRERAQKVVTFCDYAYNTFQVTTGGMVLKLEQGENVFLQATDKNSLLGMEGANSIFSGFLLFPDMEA
Sequence of human complement component C1q (human) (P02747 29-245 limits assumed, chain 3 of 3, further chain): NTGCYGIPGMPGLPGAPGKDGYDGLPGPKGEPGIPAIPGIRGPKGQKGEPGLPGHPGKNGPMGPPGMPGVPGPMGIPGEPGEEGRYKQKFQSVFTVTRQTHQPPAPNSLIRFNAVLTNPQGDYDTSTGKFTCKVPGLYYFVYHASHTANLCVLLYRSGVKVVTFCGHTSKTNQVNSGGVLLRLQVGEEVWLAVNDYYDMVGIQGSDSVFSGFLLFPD

[7] = target: human recombinant neonatal receptor (FcRn) (human) (UniProt P55899); experiment: SPR (ProteOn XPR36), antibody captured by protein L, FcRn as analyte, equilibrium fit, pH 7.4, 25 C
[8] = target: cynomolgus recombinant neonatal receptor (FcRn) (cynomolgus monkey) (UniProt Q8SPV9); experiment: as above

Kd [3] [nM] | Kd [4] [nM] | Kd (hFcgRIIa (R131) (human)) [nM] | Kd (hFcgRIIIa (F158) (human)) [nM] | Kd (hFcgRIIIa (V158) (human)) [nM] | Kd (hFcgRIIa (H131) (human)) [nM] | Kd (hFcgRI (human)) [nM] | Kd [5] [nM] | Kd [6] [nM] | Substance | Kd [1] [nM] | Kd [2] [nM] | Kd [7] [nM] | Kd [8] [nM]
141 | 1450 | 528 | 735 | 232 | 884 | 28.3 | 2210 | 680 | Anti-RSV hIgG1 wildtype control (antibody) | 129 | 146 |  | 
 |  |  |  |  |  |  |  |  | Human IgG1 YTE control (antibody) | 30.4 | 39.3 | 4330 | 2760
